From paper doi:10.64898/2025.12.08.692925

Experiments:
Assay in all cases: split reporter
[1] = molecular target: Tim23 mutant M2 fused to short YFP (S. cerevisiae) (UniProt P32897)
[2] = molecular target: Tim23 mutant M4 fused to short YFP (S. cerevisiae) (UniProt P32897)
[3] = molecular target: Tim23 mutant M1 fused to short YFP (S. cerevisiae) (UniProt P32897)

percent of fluorescent cells [1]: 7% | percent of fluorescent cells [2]: 9% | percent of fluorescent cells [3]: 4%
B1: Sfc1 fused to long YFP (natural protein)
chain: MSQKKKASHPAINLMAGGTAGLFEALCCHPLDTIKVRMQIYRRVAGIEHVKPPGFIKTGRTIYQKEGFLALYKGLGAVVIGIIPKMAIRFSSYEFYRTLLVNKESGIVSTGNTFVAGVGAGITEAVLVVNPMEVVKIRLQAQHLTPSEPNAGPKYNNAIHAAYTIVKEEGVSALYRGVSLTAARQATNQGANFTVYSKLKEFLQNYHQMDVLPSWETSCIGLISGAIGPFSNAPLDTIKTRLQKDKSISLEKQSGMKKIITIGAQLLKEEGFRALYKGITPRVMRVAPGQAVTFTVYEYVREHLENLGIFKKNDTPKPKPLK
